This note sets out measurements from patent publication US6936431 (dated 2005).

Values joined by “and” are separate entries in the source; they are usually repeats but may differ in a detail not shown here. Identical values can stand only once. Like-named read-outs stand apart in the source and are kept apart here.

Test [1] deals with T1, rat brain farnesyl:protein transferase (rat, UniProt Q04631 2-377; Q02293 1-437). In words: farnesyltransferase activity inhibition; FIG. 10B.
Test [2] addresses T1, rat brain farnesyl:protein transferase. As to the kind of experiment: farnesyltransferase activity inhibition; FIG. 11.
The target is the same in test [3]. In words: farnesyltransferase activity inhibition; FIG. 10C.
Test [4] has the same target. In words: farnesyltransferase activity inhibition; FIG. 12A.
The target is the same in test [5]. As to the kind of experiment: farnesyltransferase activity inhibition; FIG. 12B.
Test [6] shares this target. In words: farnesyltransferase activity inhibition; FIG. 10A.
The target is the same in test [7].

With CVIK [CVIM with lysine at the X position (CVIK)], in test [1], the Ki was above 30000 nM. In the case of CFIM, the Ki in test [2] came out at 500 nM.

As to CLIM, the Ki in test [3] came out at 80 nM. Regarding CVFM, the Ki in test [4] came out at 10 nM; in test [5], 35 nM. Consider CVIA [CVIA (COOH-terminal tetrapeptide of a-Mating factor)], for which the affinity in test [6], expressed as Ki, was 4000 nM. CVIL [CVIL (COOH-terminal tetrapeptide of rap2b)] showed a Ki in test [3] of 10500 nM. Turning to CVKM [CVIM with lysine at the A2 position (CVKM)], the Ki in test [1] is above 30000 nM. On to CVLM, for which the affinity in test [3] corresponds to a Ki of 200 nM. CVAM: in test [6], the Ki is 6000 nM. With CVIM [CVIM (COOH-terminal tetrapeptide of p21^K-rasB)], the inhibition constant Ki in test [7] was 350 nM and 200 nM.
